Legend:
TLR4 = biological target: T1, TLR4 (Homo sapiens, UniProt O00206); assay: Co-immunoprecipitation with Myc-tagged TLR4 in 293T cells; type: binding; conditions: 293T cell lysates, anti-Flag immunoprecipitation
T1 construct: a Myc-tagged TLR4 deletion construct lacking the ectodomain (Myc TLR4 wt); Myc; expressed in transfected cells; host or cells: 293T cells
T1 sequence (O00206 653-839 limits assumed): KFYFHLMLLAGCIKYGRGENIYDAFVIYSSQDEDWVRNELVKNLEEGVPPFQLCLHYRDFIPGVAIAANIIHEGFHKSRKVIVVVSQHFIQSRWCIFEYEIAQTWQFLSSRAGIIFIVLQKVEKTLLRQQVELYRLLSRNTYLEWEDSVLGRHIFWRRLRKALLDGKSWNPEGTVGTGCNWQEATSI
Description: (§1) Cells were transfected in the presence (+) or absence (−) of constructs encoding a wild-type portion of TLR4 (TLR4 wt), a mutant derivative thereof (TLR4 mut), wild-type TIRAP (TIRAP), a mutant TIRAP containing a P125H mutation (TIRAP PH), or wild-type MyD88 (MyD88), wherein each construct further encodes a Myc, Flag, or hemaglutanin (HA) tag, as indicated. Antibodies used for immunoprecipitation (IP) or immunoblot (IB) are indicated to the left of each blot.
(§2) To obtain biochemical conformation for a role of TIRAP in the TLR4 signaling pathway, TIRAP-TLR4 protein interactions were evaluated using co-immunoprecipitation experiments. 293T cells were co-transfected with 4.5 μg of a Myc-tagged TLR4 deletion construct lacking the ectodomain (Myc TLR4 wt) or its mutant derivative (Myc TLR4 P714H) in the presence or absence of 1.5 μg of Flag-tagged TIRAP (Flag TIRAP) or its mutant derivative containing the P125H mutation (Flag TIRAP PH). […] Immunocomplexes were washed, separated by SDS-PAGE electrophoresis, and then analyzed by immunoblotting with either anti-myc antibody to look for co-immunoprecipitated TLR4 or anti-Flag antibody to confirm immunoprecipitation of Flag TIRAP or Flag TIRAP P125H. Total cell lysates (35 μg/sample) were likewise analyzed by SDS-PAGE and immunoblotting to confirm equivalent expression of the appropriate proteins in every sample. […]

MyD88 = biological target: T2, MyD88 (Homo sapiens, UniProt Q99836); assay: Co-immunoprecipitation with Flag-tagged MyD88 in 293T cells; type: binding; conditions: 293T cell lysates
T2 construct: Flag; expressed in transfected cells; host or cells: 293T cells
Description: as §1
as §2, with “experiments.” for “experiments. 293T cells were co-transfected with 4.5 μg of a Myc-tagged TLR4 deletion construct lacking the ectodomain (Myc TLR4 wt) or its mutant derivative (Myc TLR4 P714H) in the presence or absence of 1.5 μg of Flag-tagged TIRAP (Flag TIRAP) or its mutant derivative containing the P125H mutation (Flag TIRAP PH).”
(§3) Similarly, the interaction between TIRAP and MyD88 was examined. […] Direct interactions between TIRAP and the TIR domain of TLR4 was also detected using in vitro glutathione S transferase (GST) pull-down assays.

IRAK = IRAK (Homo sapiens, UniProt P51617); assay: Association with IRAK; type: binding
TIRAP = biological target: T3, TIRAP (Homo sapiens, UniProt P58753); assay: Co-immunoprecipitation of HA TIRAP with Flag TIRAP (homodimerization); type: binding; conditions: 293T cell lysates
T3 construct: Flag; expressed in transfected cells; host or cells: 293T cells
Description: as §1
as §2, with “experiments.” for “experiments. 293T cells were co-transfected with 4.5 μg of a Myc-tagged TLR4 deletion construct lacking the ectodomain (Myc TLR4 wt) or its mutant derivative (Myc TLR4 P714H) in the presence or absence of 1.5 μg of Flag-tagged TIRAP (Flag TIRAP) or its mutant derivative containing the P125H mutation (Flag TIRAP PH).”
as §3

TIR domain of TLR4 = biological target: T4, TIR domain of TLR4 (Homo sapiens, UniProt O00206); assay: In vitro glutathione S transferase (GST) pull-down assay; type: binding
T4 sequence (O00206 672-815 limits assumed): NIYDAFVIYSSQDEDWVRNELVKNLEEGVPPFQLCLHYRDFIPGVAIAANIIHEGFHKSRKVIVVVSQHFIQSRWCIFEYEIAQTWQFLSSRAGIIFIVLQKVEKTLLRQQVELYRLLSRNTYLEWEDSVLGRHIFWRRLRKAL
Method: Similarly, the interaction between TIRAP and MyD88 was examined. 293T cells were transfected with 1.5 μg of either HA-tagged TIRAP (HA TIRAP) alone or in combination with 1.5 μg of either Flag-tagged MyD88 (Flag MyD88), Flag-tagged TIRAP (Flag-TIRAP), or Flag-tagged TIRAP P125H (Flag TIRAP PH). Immunoprecipitation and analyses of immunocomplexes as well as total cell lysates were done as described above. […] Direct interactions between TIRAP and the TIR domain of TLR4 was also detected using in vitro glutathione S transferase (GST) pull-down assays.

PKR = assay: Co-immunoprecipitation with HA PKR kinase dead mutant in 293T cells; type: binding; conditions: 293T cell lysates
Method: (§4) (A) Bone marrow-derived macrophages from either wild-type (WT) or MyD88-deficient (MyD88^−/−) mice were stimulated for the indicated time periods (minutes) with either LPS or CpG, and immunoblots were performed using an antibody that specifically recognizes phosphorylated PKR (PKR-P). B and C Cells were transfected with constructs encoding Flag-tagged TIRAP and either a construct encoding an HA-tagged kinase dead mutant of PKR (HA PKR KD) or p58, as indicated. Antibodies used for immunoprecipitation (IP) or immunoblot (IB) are indicated to the left of each blot, and arrows on the right show the location of the indicated proteins.
To determine whether PKR and TIRAP interact, lysates from 293T cells transfected with either 3.5 μg of an HA PKR kinase dead (KD) mutant […] 1.5 μg of Flag TIRAP were subjected to immunoprecipitation analyses as described above, followed by SDS-PAGE and immunoblotting with the indicated antibodies. The PKR KD mutant rather than wild type PKR was used because overexpressing PKR induces cell death. PKR did, in fact, co-immunoprecipitate with TIRAP (FIG. 4B), further supporting the link between PKR and TIRAP established above.

p58 = assay: Co-immunoprecipitation with p58 in 293T cells; type: binding; conditions: 293T cell lysates
Method: as §4
(§5) Because TIRAP may not regulate PKR directly, the interaction between TIRAP and two other proteins, p58 and PACT, was analyzed. p58 is a tetratricopeptide repeat-containing protein that negatively regulates PKR activity (Lee 1994), and PACT is a dsRNA-binding domain-containing protein that activates PKR in response to cellular stress (Patel 19980). Lysates from 293T cells transfected with either p58-encoding vector (3.5 μg) or PACT (3.5 μg) and Flag TIRAP (1.5 μg) were subject to immunoprecipitation analyses followed by SDS-PAGE and immunoblotting with the indicated antibodies.

PACT = biological target: T5, PACT (Homo sapiens, UniProt O75569); assay: Co-immunoprecipitation with PACT in 293T cells; type: binding; conditions: 293T cell lysates
T5 construct: expressed in transfected cells; host or cells: 293T cells
T5 sequence (O75569 1-313): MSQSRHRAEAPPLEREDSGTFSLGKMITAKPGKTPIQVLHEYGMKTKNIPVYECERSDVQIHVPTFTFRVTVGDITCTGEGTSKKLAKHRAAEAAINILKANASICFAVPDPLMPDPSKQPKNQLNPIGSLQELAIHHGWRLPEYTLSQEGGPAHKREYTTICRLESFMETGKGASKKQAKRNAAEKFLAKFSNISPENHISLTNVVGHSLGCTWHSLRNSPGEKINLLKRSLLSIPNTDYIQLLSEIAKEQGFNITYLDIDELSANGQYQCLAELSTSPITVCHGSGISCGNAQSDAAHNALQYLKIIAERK
Method: as §5

NF-κB promoter = assay: NF-κB-dependent luciferase reporter assay, 293T cells co-transfected with TIRAP constructs; conditions: 2.0 μg construct, 24 h post-transfection
Method: To determine the effect of various TIRAP constructs on the promoter activity of NF-κB, 293T cells were co-transfected with 2.0 μg of the indicated TIRAP construct and 0.1 μg of an NF-κB-dependent luciferase reporter gene. pcDNA3 is an empty vector control; TIRAP is a vector encoding the full length TIRAP protein; TIRAP N is a vector encoding the N-terminal domain of TIRAP; TIRAP C is a vector encoding the C terminal domain of TIRAP; and TIRAP P125H is a vector encoding a mutant form of TIRAP containing a proline to histidine mutation at amino acid position 125. Cells were harvested 24 h post-transfection and lysed for analysis in a standard luciferase reporter assay. Luciferase activity is expressed as fold induction relative to mock transfected cells (FIG. 2A).

T2 sequence (Q99836 whole entry, species assumed): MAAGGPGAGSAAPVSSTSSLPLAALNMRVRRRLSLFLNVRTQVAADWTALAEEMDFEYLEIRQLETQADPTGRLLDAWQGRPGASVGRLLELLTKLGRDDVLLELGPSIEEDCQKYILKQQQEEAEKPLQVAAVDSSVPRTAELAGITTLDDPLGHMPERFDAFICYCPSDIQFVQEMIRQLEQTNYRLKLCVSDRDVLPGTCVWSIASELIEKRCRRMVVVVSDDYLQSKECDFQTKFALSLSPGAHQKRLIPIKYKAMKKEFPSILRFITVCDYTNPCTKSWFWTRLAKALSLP
Chain of IRAK (P51617 whole entry, species assumed): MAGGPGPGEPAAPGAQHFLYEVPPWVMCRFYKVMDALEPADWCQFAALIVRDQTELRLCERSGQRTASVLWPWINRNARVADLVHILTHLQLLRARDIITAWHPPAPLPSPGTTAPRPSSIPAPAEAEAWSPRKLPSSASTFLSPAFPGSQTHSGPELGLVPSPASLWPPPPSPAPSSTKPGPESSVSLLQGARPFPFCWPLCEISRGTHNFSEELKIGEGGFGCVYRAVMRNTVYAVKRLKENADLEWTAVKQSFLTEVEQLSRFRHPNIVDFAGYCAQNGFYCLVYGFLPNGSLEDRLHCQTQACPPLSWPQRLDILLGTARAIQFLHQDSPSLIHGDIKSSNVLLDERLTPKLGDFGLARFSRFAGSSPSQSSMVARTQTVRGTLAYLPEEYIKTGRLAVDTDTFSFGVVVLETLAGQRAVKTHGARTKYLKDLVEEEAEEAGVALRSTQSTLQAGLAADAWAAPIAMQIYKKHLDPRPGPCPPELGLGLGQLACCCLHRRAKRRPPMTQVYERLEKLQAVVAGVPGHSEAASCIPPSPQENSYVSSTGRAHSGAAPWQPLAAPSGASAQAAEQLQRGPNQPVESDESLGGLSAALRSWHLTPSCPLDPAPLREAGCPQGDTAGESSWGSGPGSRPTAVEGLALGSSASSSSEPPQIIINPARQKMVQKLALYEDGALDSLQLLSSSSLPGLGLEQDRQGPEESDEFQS
T3 sequence (P58753 1-235 isoform P58753-2): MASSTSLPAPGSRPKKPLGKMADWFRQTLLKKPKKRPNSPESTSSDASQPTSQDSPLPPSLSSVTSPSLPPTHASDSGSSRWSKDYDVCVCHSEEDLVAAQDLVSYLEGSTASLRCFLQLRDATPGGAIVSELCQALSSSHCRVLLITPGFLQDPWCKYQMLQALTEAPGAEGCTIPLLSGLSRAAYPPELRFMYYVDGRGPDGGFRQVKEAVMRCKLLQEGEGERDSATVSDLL

co-immunoprecipitation with TLR4 (TLR4): co-immunoprecipitate
interaction with MyD88 (co-immunoprecipitation) (MyD88): does not interact
association with IRAK (IRAK): failed to associate
co-immunoprecipitation of TIRAP with itself (homodimerization) (TIRAP): can be co-immunoprecipitated with itself
direct interaction with the TIR domain of TLR4 (TIR domain of TLR4): detected
co-immunoprecipitation with PACT (PACT): immunoprecipitate
Substance: TIRAP: vector encoding the full length TIRAP protein (Toll/Interleukin-1 Receptor Adapter Protein)
co-immunoprecipitation with PKR (PKR): co-immunoprecipitate
co-immunoprecipitation with p58 (p58): immunoprecipitate
activation of the NF-κB promoter, luciferase activity as fold induction relative to mock transfected cells (NF-κB promoter): approximately 80 fold induction

From patent US6960343B2, “Toll/interleukin-1 receptor adapter protein (TIRAP)” (Yale University School of Medicine, priority 2001, dated 2005)
